Experimental data reported in patent US20260241049A1, “Radiopharmaceutical Compositions Targeting Glypican-3 and Uses Thereof” (RayzeBio, Inc., priority 2023, published 2026).
Starred links: 1 amine or outer side, 2 acyl side, 3 side chain; linkers in the order of their positions; H or OH if unused. Positions of bridges follow the written chain, without caps; N, C: chain ends. Non-standard residues stand in square brackets, D forms with d. Primed or numbered codes have the meaning given here. MeA4paa = 3-(1-(carboxymethyl)piperidin-4-yl)-2-(methylamino)propanoic acid, CN([C@@H](CC1CCN(CC(=O)[*:3])CC1)C(=O)[*:2])[*:1]; MeHseMe″ = (2S)-4-methoxy-2-(methylamino)butanoic acid (N-methyl-O-methyl-L-homoserine), COCC[C@@H](C(=O)[*:2])N(C)[*:1]; F4aao = 4-(carboxymethoxy)-L-phenylalanine, O=C([C@H](Cc1ccc(OCC(=O)[*:3])cc1)N[*:1])[*:2]; F4aao(4) = 4-(carboxymethoxy)phenylalanine, O=C([C@H](Cc1ccc(OCC(=O)[*:3])cc1)N[*:1])[*:2]; Thr(Me)(3) = TMe, O-methyl-L-threonine, CO[C@H](C)[C@H](N[*:1])C(=O)[*:2]; Hgn = 2,6-diamino-6-oxohexanoic acid, NC(=O)CCC[C@H](N[*:1])C(=O)[*:2]; HseMe = 2-amino-4-methoxybutanoic acid, COCC[C@H](N[*:1])C(=O)[*:2]; Phe(4-(1-Me-pyrazol-4-yl)) = Cn1cc(-c2ccc(C[C@H](N)C(=O)O)cc2)cn1; Phe(4-CH2COOH) = N[C@@H](Cc1ccc(CC(=O)O)cc1)C(=O)O; Phe(4-COOH) = N[C@@H](Cc1ccc(C(=O)O)cc1)C(=O)O; NMe2Nal = CN[C@@H](Cc1ccc2ccccc2c1)C(=O)O; NMeQ = CN[C@@H](CCC(N)=O)C(=O)O; MeD = methyl-L-aspartic acid; NMeC = CN[C@@H](CS)C(=O)O

molecular target: T1, human Glypican3 (R&D systems, catalog number: 2119-GP) (human, UniProt P51654 25-559, limits assumed); test: SPR (Biacore T200), Method B-1: human Glypican3 amine-coupled to CM3 chip, peptide as analyte
T1 construct: Bought recombinant protein, amine-coupled to the chip in Method B-1; also called GPC3; hGPC3
Description: A CM3 sensor chip (Cytiva) was inserted into a Biacore T200 (Cytiva), primed three times with a running buffer: HBS-P+, pH 7.4 (Cytiva), and equilibrated at a flow rate of 30 μL/min. Ligand immobilization was performed at a flow rate of 10 μL/min. 50 μL each of 60 mM EDC solution (Cytiva) and 650 mM NHS solution (Cytiva) were mixed, and then reacted at a flow rate of 10 μL/min for 420 seconds, 150 μL of 0.2 μM human Glypican3 (R&D systems, catalog number: 2119-GP) solution which was prepared by diluting with 10 mM acetic acid solution (pH 5.0), was reacted at a flow rate of 10 μL/min for 420 seconds, and Glypican3 was immobilized on the CM3 sensor chip. After immobilization, 1.0 M ethanolamine aqueous solution (Cytiva) was allowed to react for 420 seconds at a flow rate of 10 μL/min for capping. A peptide lysate prepared to 10 mM in DMSO solution was diluted with running buffer to a final concentration of 10 μM peptide lysate. […] Using the above samples, peptide kinetics for Glypican3 was obtained by SPR measurement. Kinetics evaluation of Glypican3 was performed by SPR measurements at a flow rate of 10 μL/min, setting the association time to 120 seconds and the disassociation time to 600 seconds.
The obtained data by Method B-1, Method B-2, Method B-3 and Method B-4 were analyzed by follow. Single Cycle Kinetics was used as the kinetics evaluation model, and curve fitting was performed using Biacore T200 Evaluation Software Version 3.0 (Cytiva).

Binder	Kd
{CH2CO}-[NMeQ][MeHseMe″]D[NMeQ][Phe(4-COOH)]II[Phe(4-COOH)][NMe2Nal]G[Phe(4-(1-Me-pyrazol-4-yl))][NMeC]-NH2 (thioether N-12; SMILES CC[C@H](C)[C@@H]1NC(=O)[C@H](Cc2ccc(C(=O)O)cc2)NC(=O)[C@H](CCC(N)=O)N(C)C(=O)[C@H](CC(=O)O)NC(=O)[C@H](CCOC)N(C)C(=O)[C@H](CCC(N)=O)N(C)C(=O)CSC[C@@H](C(N)=O)N(C)C(=O)[C@H](Cc2ccc(-c3cnn(C)c3)cc2)NC(=O)CNC(=O)[C@H](Cc2ccc3ccccc3c2)N(C)C(=O)[C@H](Cc2ccc(C(=O)O)cc2)NC(=O)[C@H]([C@@H](C)CC)NC1=O) [Macrocyclic peptide of Example 2-8 (SEQ ID No. 11)]	1.3 nM
{CH2CO}-[NMeQ][NMeQ]K(Ac)[NMeQ][Phe(4-COOH)]II[Phe(4-COOH)][NMe2Nal]G[Phe(4-(1-Me-pyrazol-4-yl))][NMeC]-NH2 (thioether N-12; SMILES CC[C@H](C)[C@@H]1NC(=O)[C@H](Cc2ccc(C(=O)O)cc2)NC(=O)[C@H](CCC(N)=O)N(C)C(=O)[C@H](CCCCNC(C)=O)NC(=O)[C@H](CCC(N)=O)N(C)C(=O)[C@H](CCC(N)=O)N(C)C(=O)CSC[C@@H](C(N)=O)N(C)C(=O)[C@H](Cc2ccc(-c3cnn(C)c3)cc2)NC(=O)CNC(=O)[C@H](Cc2ccc3ccccc3c2)N(C)C(=O)[C@H](Cc2ccc(C(=O)O)cc2)NC(=O)[C@H]([C@@H](C)CC)NC1=O) [Macrocyclic peptide of Example 2-11 (SEQ ID No. 14)]	2.5 nM
{CH2CO}-[NMeQ][HseMe]D[NMeQ][Phe(4-COOH)]II[Phe(4-COOH)][NMe2Nal]G[Phe(4-(1-Me-pyrazol-4-yl))][NMeC]-NH2 (thioether N-12; SMILES CC[C@H](C)[C@@H]1NC(=O)[C@H](Cc2ccc(C(=O)O)cc2)NC(=O)[C@H](CCC(N)=O)N(C)C(=O)[C@H](CC(=O)O)NC(=O)[C@H](CCOC)NC(=O)[C@H](CCC(N)=O)N(C)C(=O)CSC[C@@H](C(N)=O)N(C)C(=O)[C@H](Cc2ccc(-c3cnn(C)c3)cc2)NC(=O)CNC(=O)[C@H](Cc2ccc3ccccc3c2)N(C)C(=O)[C@H](Cc2ccc(C(=O)O)cc2)NC(=O)[C@H]([C@@H](C)CC)NC1=O) [Macrocyclic peptide of Example 2-9 (SEQ ID No. 12)]	7.2 nM
{CH2CO}-[NMeQ][NMeQ]D[MeA4paa][Phe(4-COOH)]II[Phe(4-COOH)][NMe2Nal]G[Phe(4-(1-Me-pyrazol-4-yl))][NMeC]-NH2 (thioether N-12; SMILES CC[C@H](C)[C@@H]1NC(=O)[C@H](Cc2ccc(C(=O)O)cc2)NC(=O)[C@H](CC2CCN(CC(=O)O)CC2)N(C)C(=O)[C@H](CC(=O)O)NC(=O)[C@H](CCC(N)=O)N(C)C(=O)[C@H](CCC(N)=O)N(C)C(=O)CSC[C@@H](C(N)=O)N(C)C(=O)[C@H](Cc2ccc(-c3cnn(C)c3)cc2)NC(=O)CNC(=O)[C@H](Cc2ccc3ccccc3c2)N(C)C(=O)[C@H](Cc2ccc(C(=O)O)cc2)NC(=O)[C@H]([C@@H](C)CC)NC1=O) [Macrocyclic peptide of Example 2-12 (SEQ ID No. 15)]	2.9 nM
{CH2CO}-[NMeQ][NMeQ]D[MeD][Phe(4-COOH)]II[Phe(4-COOH)][NMe2Nal]G[Phe(4-(1-Me-pyrazol-4-yl))][NMeC]-NH2 (thioether N-12) [Macrocyclic peptide of Example 2-13 (SEQ ID No. 16)]	2.8 nM
{CH2CO}-[NMeQ][NMeQ][Hgn][NMeQ][Phe(4-COOH)]II[Phe(4-COOH)][NMe2Nal]G[Phe(4-(1-Me-pyrazol-4-yl))][NMeC]-NH2 (thioether N-12; SMILES CC[C@H](C)[C@@H]1NC(=O)[C@H](Cc2ccc(C(=O)O)cc2)NC(=O)[C@H](CCC(N)=O)N(C)C(=O)[C@H](CCCC(N)=O)NC(=O)[C@H](CCC(N)=O)N(C)C(=O)[C@H](CCC(N)=O)N(C)C(=O)CSC[C@@H](C(N)=O)N(C)C(=O)[C@H](Cc2ccc(-c3cnn(C)c3)cc2)NC(=O)CNC(=O)[C@H](Cc2ccc3ccccc3c2)N(C)C(=O)[C@H](Cc2ccc(C(=O)O)cc2)NC(=O)[C@H]([C@@H](C)CC)NC1=O) [Macrocyclic peptide of Example 2-10 (SEQ ID No. 13)]	2.2 nM

More lines, now with the values ahead:

Kd	Binder
3.5 nM	{CH2CO}-[NMeQ][NMeQ]D[NMeQ][Phe(4-COOH)]II[Phe(4-CH2COOH)][NMe2Nal]G[Phe(4-(1-Me-pyrazol-4-yl))][NMeC]-NH2 (thioether N-12; SMILES CC[C@H](C)[C@@H]1NC(=O)[C@H](Cc2ccc(C(=O)O)cc2)NC(=O)[C@H](CCC(N)=O)N(C)C(=O)[C@H](CC(=O)O)NC(=O)[C@H](CCC(N)=O)N(C)C(=O)[C@H](CCC(N)=O)N(C)C(=O)CSC[C@@H](C(N)=O)N(C)C(=O)[C@H](Cc2ccc(-c3cnn(C)c3)cc2)NC(=O)CNC(=O)[C@H](Cc2ccc3ccccc3c2)N(C)C(=O)[C@H](Cc2ccc(CC(=O)O)cc2)NC(=O)[C@H]([C@@H](C)CC)NC1=O) [Macrocyclic peptide of Example 2-16 (SEQ ID No. 19)]
1.9 nM	{CH2CO}-[NMeQ][NMeQ]D[NMeQ][Phe(4-COOH)]II[F4aao][NMe2Nal]G[Phe(4-(1-Me-pyrazol-4-yl))][NMeC]-NH2 (thioether N-12; SMILES CC[C@H](C)[C@@H]1NC(=O)[C@H](Cc2ccc(C(=O)O)cc2)NC(=O)[C@H](CCC(N)=O)N(C)C(=O)[C@H](CC(=O)O)NC(=O)[C@H](CCC(N)=O)N(C)C(=O)[C@H](CCC(N)=O)N(C)C(=O)CSC[C@@H](C(N)=O)N(C)C(=O)[C@H](Cc2ccc(-c3cnn(C)c3)cc2)NC(=O)CNC(=O)[C@H](Cc2ccc3ccccc3c2)N(C)C(=O)[C@H](Cc2ccc(OCC(=O)O)cc2)NC(=O)[C@H]([C@@H](C)CC)NC1=O) [Macrocyclic peptide of Example 2-17 (SEQ ID No. 20)]
4.8 nM	{CH2CO}-[NMeQ][NMeQ]D[NMeQ][F4aao(4)]II[Phe(4-COOH)][NMe2Nal]G[Phe(4-(1-Me-pyrazol-4-yl))][NMeC]-NH2 (thioether N-12; SMILES CC[C@H](C)[C@@H]1NC(=O)[C@H](Cc2ccc(OCC(=O)O)cc2)NC(=O)[C@H](CCC(N)=O)N(C)C(=O)[C@H](CC(=O)O)NC(=O)[C@H](CCC(N)=O)N(C)C(=O)[C@H](CCC(N)=O)N(C)C(=O)CSC[C@@H](C(N)=O)N(C)C(=O)[C@H](Cc2ccc(-c3cnn(C)c3)cc2)NC(=O)CNC(=O)[C@H](Cc2ccc3ccccc3c2)N(C)C(=O)[C@H](Cc2ccc(C(=O)O)cc2)NC(=O)[C@H]([C@@H](C)CC)NC1=O) [Macrocyclic peptide of Example 2-14 (SEQ ID No. 17)]
1.8 nM	{CH2CO}-[NMeQ][NMeQ]D[NMeQ][Phe(4-COOH)][Thr(Me)(3)]I[Phe(4-COOH)][NMe2Nal]G[Phe(4-(1-Me-pyrazol-4-yl))][NMeC]-NH2 (thioether N-12) [Macrocyclic peptide of Example 2-15 (SEQ ID No. 18)]
